According to article PMC7018950, “A conserved strategy of chalcone isomerase-like protein to rectify promiscuous chalcone synthase specificity” (Nature Communications, 2020):

Experiments:
[1] = molecular target: T1, glutathione S-transferase-tagged CHIL of morning glory (Ipomoea nil (morning glory)); test: BLI; BLItz; His6-tagged CHS immobilised on anti-His6 sensors, GST-tagged CHIL loaded; 100 mM HEPES-NaOH pH 7.5; 1:1 binding model; apparent KD; details: both partners purified
T1 construct: the purification of the GST fusions is not described; also called InCHIL; EFP; source: E. coli (pGEX4T-1)

[2] = molecular target: T2, His6-tagged Arabidopsis thaliana chalcone synthase (AtCHS) (Arabidopsis thaliana, UniProt P13114 1-395); test: BLI; BLItz; His6-tagged CHS immobilised on anti-His6 sensors, GST-tagged CHIL loaded (30-150 s), wash (150-270 s); 100 mM HEPES-NaOH, pH 7.5; 1:1 binding model; apparent KD; details: both partners purified
T2 construct: also called TT4; source: E. coli BL21 (pCold I), purified; not shown: His6, N-terminal, kept
T2 sequence (looked up): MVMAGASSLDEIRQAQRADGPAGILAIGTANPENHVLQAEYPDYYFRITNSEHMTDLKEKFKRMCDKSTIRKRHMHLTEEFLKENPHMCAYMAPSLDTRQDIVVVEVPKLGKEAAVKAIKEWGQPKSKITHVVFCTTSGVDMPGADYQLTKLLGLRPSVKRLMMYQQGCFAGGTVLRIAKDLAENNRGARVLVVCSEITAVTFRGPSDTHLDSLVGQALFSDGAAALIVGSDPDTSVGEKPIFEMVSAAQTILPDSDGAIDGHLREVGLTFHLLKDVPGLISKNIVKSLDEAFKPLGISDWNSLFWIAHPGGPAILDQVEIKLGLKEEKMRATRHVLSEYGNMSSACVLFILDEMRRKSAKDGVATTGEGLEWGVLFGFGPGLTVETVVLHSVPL

Binder	Kd [1] [nM]	Kd [2] [nM]	koff [2] [s⁻¹]	kon [2] [M⁻¹ s⁻¹]
His6-tagged CHS of morning glory (enzyme) MVTVEEVRKAQRAEGPATILAIGTATPANCVDQSTYPDYYFRITNSDHMTDLKQKFQRMCDKSMITKRYMHLTEEILKENPSFCEYMAPSLDARQDIVVVEVPKLGKEAAQSAIKEWGQPKSKITHVIFCTTSGVDMPGADYQLTKLLGLRPSVKRLMMYQQGCFAGGTVLRVAKDLAENNKAARVLVVCSEITVVTFRGPNETHLDSLVGQALFGDGAAAIIVGSDPTPAEKPLFQLVSAAQTLAPDSCGAIDGHLREVGLTFHLLKDVPSIVSNNIEKCLSEAFNPLGISDWNSIFWIAHPGGPAILDQVEDKLGLKPEKLRATRHVLSEYGNMSSACVLFILDEMRKASSNDGLGTTGEGLEWGVLFGFGPGLTIETVVLHSVPA	1	–	–	–
glutathione S-transferase-tagged Arabidopsis thaliana chalcone isomerase-like protein (AtCHIL) (natural protein, chalcone isomerase-like protein AtCHIL, Arabidopsis thaliana; source: E. coli (pGEX4T-1)) MVMVHEVPFPPQIITSKPLSLLGQGITDIEIHFLQVKFTAIGVYLDPSDVKTHLDNWKGKTGKELAGDDDFFDALASAEMEKVIRVVVIKEIKGAQYGVQLENTVRDRLAEEDKYEEEEETELEKVVGFFQSKYFKANSVITYHFSAKDGICEIGFETEGKEEEKLKVENANVVGMMQRWYLSGSRGVSPSTIVSIADSISAVLT	–	9.15	0.00137	150000
